Measured values reported in patent US20180298070A1, “PEPTIDE COMPOUND” (Takeda Pharmaceutical Company Limited, published 2018).
Starred links: 1 amine or outer side, 2 acyl side, 3 side chain; linkers in the order of their positions; H or OH if unused. Non-standard residues stand in square brackets, D forms with d. Groups on a side chain read outwards from the residue. Primed or numbered codes have the meaning given here. No end group written: not given here. *: point of attachment. C20 diacid = O=C(O)CCCCCCCCCCCCCCCCCCC(=O)*; γGlu = O=C(O)[C@H](CCC(=O)[*:2])N[*:1]; NMeY = CN[C@@H](Cc1ccc(O)cc1)C(=O)O; Iva = CC[C@](C)(N)C(=O)O; PEG3′ = not defined here; Aib = CC(C)(N)C(=O)O

T1: human GIPR (human), P48546
T1 chain: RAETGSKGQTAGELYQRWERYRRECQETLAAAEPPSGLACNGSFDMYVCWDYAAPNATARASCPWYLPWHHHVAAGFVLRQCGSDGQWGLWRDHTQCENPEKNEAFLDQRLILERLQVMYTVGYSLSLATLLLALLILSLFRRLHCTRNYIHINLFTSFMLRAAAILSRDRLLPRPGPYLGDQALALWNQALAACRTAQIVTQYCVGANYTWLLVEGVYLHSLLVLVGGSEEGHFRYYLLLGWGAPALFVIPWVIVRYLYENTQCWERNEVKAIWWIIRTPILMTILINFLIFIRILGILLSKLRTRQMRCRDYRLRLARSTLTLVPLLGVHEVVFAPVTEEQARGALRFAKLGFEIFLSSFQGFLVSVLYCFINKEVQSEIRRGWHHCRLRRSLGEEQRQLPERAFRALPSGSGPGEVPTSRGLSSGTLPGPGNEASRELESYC

T2: human GLP-1R (human), P43220
T2 chain: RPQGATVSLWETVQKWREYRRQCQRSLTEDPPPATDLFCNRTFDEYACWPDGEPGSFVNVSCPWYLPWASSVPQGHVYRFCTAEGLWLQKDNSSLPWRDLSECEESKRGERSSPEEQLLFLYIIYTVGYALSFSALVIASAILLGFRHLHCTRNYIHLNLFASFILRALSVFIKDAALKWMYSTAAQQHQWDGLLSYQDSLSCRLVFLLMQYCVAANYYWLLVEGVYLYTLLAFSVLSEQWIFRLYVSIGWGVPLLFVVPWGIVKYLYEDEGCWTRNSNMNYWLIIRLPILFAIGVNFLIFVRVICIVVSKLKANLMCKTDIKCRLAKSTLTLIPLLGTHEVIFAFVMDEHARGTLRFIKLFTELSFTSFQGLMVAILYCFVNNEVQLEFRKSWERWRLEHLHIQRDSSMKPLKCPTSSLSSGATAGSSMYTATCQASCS


How the values were obtained:
[1] = molecular target: T1, human GIPR (human), P48546; assay: [125I]GIP competition, human GIPR VLP
[2] = molecular target: T1, human GIPR (human), P48546
[3] = molecular target: T2, human GLP-1R (human), P43220
human GLP-1R = human GLP-1R (human, UniProt P43220); assay: cell-based or functional assay

Row | Binder | IC50 [1] | Agonist activity (EC50, M) [2] | Agonist activity (EC50, M) [3] | Agonist activity (EC50, M) (human GLP-1R)
1 | Y[Aib]EGTFISDYSIALDRK([PEG(2)-C20 diacid])AQQNFVNW[Iva]LAQRPSSGAPPPS (not fully specified (C-terminus); ends and bridges not checked) [Compound 404] | 24 nM | 1.1e-10 M | > 1e-06 M | 
2 | Y[Aib]EGTFISDYSK([PEG(2)-C20 diacid])ALDRIAQQNFVNW[Iva]LAQRPSSGAPPPS (ends and bridges not checked) [Compound 381] | 8.7 nM | 4.4e-11 M | > 1e-06 M | 
3 | [NMeY][Aib]EGTFISDYSIALDRIAQQDFVNWLLAQRPSSGAPPPSR-NH2 (N-terminus assumed; SMILES CC[C@H](C)[C@H](NC(=O)[C@H](CCCNC(=N)N)NC(=O)[C@H](CC(=O)O)NC(=O)[C@H](CC(C)C)NC(=O)[C@H](C)NC(=O)[C@@H](NC(=O)[C@H](CO)NC(=O)[C@H](Cc1ccc(O)cc1)NC(=O)[C@H](CC(=O)O)NC(=O)[C@H](CO)NC(=O)[C@@H](NC(=O)[C@H](Cc1ccccc1)NC(=O)[C@@H](NC(=O)CNC(=O)[C@H](CCC(=O)O)NC(=O)C(C)(C)NC(=O)[C@H](Cc1ccc(O)cc1)NC)[C@@H](C)O)[C@@H](C)CC)[C@@H](C)CC)C(=O)N[C@@H](C)C(=O)N[C@@H](CCC(N)=O)C(=O)N[C@@H](CCC(N)=O)C(=O)N[C@@H](CC(=O)O)C(=O)N[C@@H](Cc1ccccc1)C(=O)N[C@H](C(=O)N[C@@H](CC(N)=O)C(=O)N[C@@H](Cc1c[nH]c2ccccc12)C(=O)N[C@@H](CC(C)C)C(=O)N[C@@H](CC(C)C)C(=O)N[C@@H](C)C(=O)N[C@@H](CCC(N)=O)C(=O)N[C@@H](CCCNC(=N)N)C(=O)N1CCC[C@H]1C(=O)N[C@@H](CO)C(=O)N[C@@H](CO)C(=O)NCC(=O)N[C@@H](C)C(=O)N1CCC[C@H]1C(=O)N1CCC[C@H]1C(=O)N1CCC[C@H]1C(=O)N[C@@H](CO)C(=O)N[C@@H](CCCNC(=N)N)C(N)=O)C(C)C) [Compound 59] |  |  |  | > 1e-06 M
4 | Y[Aib]EGTFISDYSK([PEG(2)-C20 diacid])ALDRIAQQNFVNW[Iva]LAQR (ends and bridges not checked) [Compound 387] | 8.2 nM | 5.9e-11 M | > 1e-06 M | 
5 | [NMeY][Aib]EGTFISDYSIALDR[Aib]HQ[Aib]NFVNW[Iva]LAQRPSSGAPPPSR-NH2 (N-terminus assumed; SMILES CC[C@H](C)[C@H](NC(=O)[C@H](CO)NC(=O)[C@H](Cc1ccc(O)cc1)NC(=O)[C@H](CC(=O)O)NC(=O)[C@H](CO)NC(=O)[C@@H](NC(=O)[C@H](Cc1ccccc1)NC(=O)[C@@H](NC(=O)CNC(=O)[C@H](CCC(=O)O)NC(=O)C(C)(C)NC(=O)[C@H](Cc1ccc(O)cc1)NC)[C@@H](C)O)[C@@H](C)CC)C(=O)N[C@@H](C)C(=O)N[C@@H](CC(C)C)C(=O)N[C@@H](CC(=O)O)C(=O)N[C@@H](CCCNC(=N)N)C(=O)NC(C)(C)C(=O)N[C@@H](Cc1c[nH]cn1)C(=O)N[C@@H](CCC(N)=O)C(=O)NC(C)(C)C(=O)N[C@@H](CC(N)=O)C(=O)N[C@@H](Cc1ccccc1)C(=O)N[C@H](C(=O)N[C@@H](CC(N)=O)C(=O)N[C@@H](Cc1c[nH]c2ccccc12)C(=O)N[C@@](C)(CC)C(=O)N[C@@H](CC(C)C)C(=O)N[C@@H](C)C(=O)N[C@@H](CCC(N)=O)C(=O)N[C@@H](CCCNC(=N)N)C(=O)N1CCC[C@H]1C(=O)N[C@@H](CO)C(=O)N[C@@H](CO)C(=O)NCC(=O)N[C@@H](C)C(=O)N1CCC[C@H]1C(=O)N1CCC[C@H]1C(=O)N1CCC[C@H]1C(=O)N[C@@H](CO)C(=O)N[C@@H](CCCNC(=N)N)C(N)=O)C(C)C) [Compound 117] |  |  |  | > 1e-06 M
6 | Y[Aib]EGTFISDYSIAK([PEG(2)-C20 diacid])DRIAQQNFVNW[Iva]LAQR (ends and bridges not checked) [Compound 389] | 19 nM | 8e-11 M | > 1e-06 M | 
7 | Y[Aib]EGTVVSLYSK([PEG3′-PEG3′-C20 diacid])[Aib]LDRQAQ[Aib]EFVK(Ac)WLLRGGPSSGAPPPS (ends and bridges not checked) [Compound 324] | 7.8 nM |  |  | 
8 | YXEGTXISDYSIALDRXAQXNFVNWLLAQRPSSGAPPPSR (N-methyl on Tyr 1 (Me-Tyr); Aib at 2, 17, 20; Iva at 6; C-terminal amide (NH2)) [Compound 104] |  |  |  | > 1e-06 M
9 | YXEGTXISDYSIXLDRXAQXNFVNWXLAQRPSSGAPPPSR (N-methyl on Tyr 1 (Me-Tyr); Aib at 2, 13, 17, 20; Iva at 6, 26; C-terminal amide (NH2)) [Compound 113] |  |  |  | > 1e-06 M
10 | Y[Aib]EGTVVSLYSK([PEG3′-PEG3′-γGlu-C20 diacid])[Aib]LDRQAQ[Aib]EFVK(Ac)WLLRGGPSSGAPPPS (ends and bridges not checked) [Compound 326] | 15 nM |  |  | 
11 | Y[Aib]EGTFISDYSIALDRK([PEG(2)-C20 diacid])AQQNFVNW[Iva]LAQRPSSGAPPPS (ends and bridges not checked) [Compound 385] | 15 nM | 8.3e-11 M | > 1e-06 M | 
12 | Y[Aib]EGTFISDYSIALDRK([PEG(2)-C20 diacid])AQQNFVNW[Iva]LAQR (ends and bridges not checked) [Compound 391] | 34 nM | 1.1e-10 M | > 1e-06 M | 
13 | Y[Aib]EGTVKSDYSILLDKQAQ[Aib]EFVKWLLKGGPSSGAPPPSK-NH2 (N-terminus assumed; SMILES CC[C@H](C)[C@H](NC(=O)[C@H](CO)NC(=O)[C@H](Cc1ccc(O)cc1)NC(=O)[C@H](CC(=O)O)NC(=O)[C@H](CO)NC(=O)[C@H](CCCCN)NC(=O)[C@@H](NC(=O)[C@@H](NC(=O)CNC(=O)[C@H](CCC(=O)O)NC(=O)C(C)(C)NC(=O)[C@@H](N)Cc1ccc(O)cc1)[C@@H](C)O)C(C)C)C(=O)N[C@@H](CC(C)C)C(=O)N[C@@H](CC(C)C)C(=O)N[C@@H](CC(=O)O)C(=O)N[C@@H](CCCCN)C(=O)N[C@@H](CCC(N)=O)C(=O)N[C@@H](C)C(=O)N[C@@H](CCC(N)=O)C(=O)NC(C)(C)C(=O)N[C@@H](CCC(=O)O)C(=O)N[C@@H](Cc1ccccc1)C(=O)N[C@H](C(=O)N[C@@H](CCCCN)C(=O)N[C@@H](Cc1c[nH]c2ccccc12)C(=O)N[C@@H](CC(C)C)C(=O)N[C@@H](CC(C)C)C(=O)N[C@@H](CCCCN)C(=O)NCC(=O)NCC(=O)N1CCC[C@H]1C(=O)N[C@@H](CO)C(=O)N[C@@H](CO)C(=O)NCC(=O)N[C@@H](C)C(=O)N1CCC[C@H]1C(=O)N1CCC[C@H]1C(=O)N1CCC[C@H]1C(=O)N[C@@H](CO)C(=O)N[C@@H](CCCCN)C(N)=O)C(C)C) [Compound 10] |  |  |  | > 1e-06 M
14 | Y[Aib]EGTVVSLYSI[Aib]LDKQAQ[Aib]EFVKW[Aib]LKGGPSSGAPPPSK-NH2 (N-terminus assumed; SMILES CC[C@H](C)[C@H](NC(=O)[C@H](CO)NC(=O)[C@H](Cc1ccc(O)cc1)NC(=O)[C@H](CC(C)C)NC(=O)[C@H](CO)NC(=O)[C@@H](NC(=O)[C@@H](NC(=O)[C@@H](NC(=O)CNC(=O)[C@H](CCC(=O)O)NC(=O)C(C)(C)NC(=O)[C@@H](N)Cc1ccc(O)cc1)[C@@H](C)O)C(C)C)C(C)C)C(=O)NC(C)(C)C(=O)N[C@@H](CC(C)C)C(=O)N[C@@H](CC(=O)O)C(=O)N[C@@H](CCCCN)C(=O)N[C@@H](CCC(N)=O)C(=O)N[C@@H](C)C(=O)N[C@@H](CCC(N)=O)C(=O)NC(C)(C)C(=O)N[C@@H](CCC(=O)O)C(=O)N[C@@H](Cc1ccccc1)C(=O)N[C@H](C(=O)N[C@@H](CCCCN)C(=O)N[C@@H](Cc1c[nH]c2ccccc12)C(=O)NC(C)(C)C(=O)N[C@@H](CC(C)C)C(=O)N[C@@H](CCCCN)C(=O)NCC(=O)NCC(=O)N1CCC[C@H]1C(=O)N[C@@H](CO)C(=O)N[C@@H](CO)C(=O)NCC(=O)N[C@@H](C)C(=O)N1CCC[C@H]1C(=O)N1CCC[C@H]1C(=O)N1CCC[C@H]1C(=O)N[C@@H](CO)C(=O)N[C@@H](CCCCN)C(N)=O)C(C)C) [Compound 42] |  |  |  | > 1e-06 M
15 | Y[Aib]EGTFISDYSIAK([PEG(2)-C20 diacid])DRIAQQNFVNW[Iva]LAQRPSSGAPPPS (ends and bridges not checked) [Compound 383] | 10 nM | 4.3e-11 M | > 1e-06 M | 
